Measured values taken from patent US20240317847A1 (Bayer, published 2024).

Legend:
[1] = target: T1, murine IL-11 (mouse, UniProt P47873 22-199); assay: cell-based or functional assay
T1 sequence: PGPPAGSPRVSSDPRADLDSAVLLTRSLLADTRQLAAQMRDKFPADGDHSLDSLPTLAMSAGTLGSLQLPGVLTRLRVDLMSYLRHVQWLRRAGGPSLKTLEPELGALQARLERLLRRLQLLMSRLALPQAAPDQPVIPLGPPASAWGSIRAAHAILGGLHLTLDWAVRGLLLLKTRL

[2] = target: T2, human IL-11 (human, UniProt P20809 22-199); assay: cell-based or functional assay
T2 sequence: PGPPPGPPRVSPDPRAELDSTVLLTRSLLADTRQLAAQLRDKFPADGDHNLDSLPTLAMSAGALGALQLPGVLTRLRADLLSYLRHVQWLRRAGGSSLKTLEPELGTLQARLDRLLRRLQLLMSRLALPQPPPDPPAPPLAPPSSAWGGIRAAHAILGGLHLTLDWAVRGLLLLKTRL

[3] = target: T3, human IL2Ra (human, UniProt P01589 22-240, limits assumed); assay: ELISA on coated IL2Ra, signal ratio to isotype control TPP-10159 at 3.3E-7 M antibody
T3 construct: coated on the ELISA plate; also called IL-2 receptor alpha
T3 sequence (looked up): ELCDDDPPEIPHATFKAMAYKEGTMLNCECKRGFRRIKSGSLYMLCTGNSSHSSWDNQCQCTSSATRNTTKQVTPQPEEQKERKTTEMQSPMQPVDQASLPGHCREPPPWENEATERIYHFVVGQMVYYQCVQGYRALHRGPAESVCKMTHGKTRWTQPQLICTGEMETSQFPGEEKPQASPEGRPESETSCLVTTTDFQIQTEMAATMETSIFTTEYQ
Protocol: IL2RA (Peprotech, Germany, #200-02RC) was coated at 1 or 0 μg/ml (buffer only control) in 30 μl coating buffer (Candor, #113500) per well on a 384 well microtiter plate (Maxisorb, Nunc, #460518) over night at 4-8° C. After two washes with 50 μl/well washing buffer (PBS+0.05% Tween, pH 7.4), the plates were incubated for two hours at room temperature with 50 μl/well SmartBlock (Candor, #113500). After blocking, the plates were washed three times with washing buffer. Then, a dilution series of the respective antibody (1E-7 [M] down to 2E-13 [M]) in PBS+0.05% Tween, 10% SmartBlock were added in 30 μl to the microtiter plate and incubated for 90 min at room temperature. After three additional washes, 30 μl anti mouse IgG HRP-conjugated antibody (Biotechne, HAF007), diluted 1:1000 in PBS+0.05% Tween (pH 7.4), were added per well and incubated for one hour. After three additional washes, a mixture of Amplex red (Invitrogen, #12222, 10 mM stock solution in DMSO) 1:1000 diluted in PBS and H2O2 (30%, Merck, #107209)) diluted 1:10000 in PBS were added as substrate with 30 μl per well and incubated for 20 min in the dark. Relative fluorescence was measured with a microtiter plate reader at 535/590 nm.
IgG converted antibodies TPP-were tested for binding to IL2Ra as described in Example 20. The ratios of the signals obtained at an antibody concentration of 3.3E-7 [M] for IgG converted antibody versus the isotype control TPP-10159 were calculated and are shown in Table E22.

[4] = target: T4, human IL-11 (Invigate, e.g., lot #C121021-19) (human, UniProt P20809 22-199); assay: Tri-complex ELISA: antibody titrated against 8 nM human IL-11, 2 nM human gp130-human-Fc and 2 nM murine IL11RA-murine-Fc
T4 construct: Bought protein; also called hIL-11; hIL11
T4 sequence: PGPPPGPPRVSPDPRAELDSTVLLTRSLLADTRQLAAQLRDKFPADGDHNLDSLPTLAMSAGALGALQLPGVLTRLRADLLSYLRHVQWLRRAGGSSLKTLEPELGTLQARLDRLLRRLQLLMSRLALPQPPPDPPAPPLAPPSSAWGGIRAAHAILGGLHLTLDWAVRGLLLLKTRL
Protocol: In the Tri-complex ELISA format IL-11 antibodies are tested for their ability to inhibit the formation of a complex consisting of murine or human gp130-Fc fusion protein, with murine or human IL-11, and a murine IL11RA-Fc fusion protein. The assay format was adapted according to FIG. 18 (a, b), depending on whether murine or human IL-11 IgG antibodies were tested.
The assay was performed using High Binding microtiter plates (Greiner, #781077). In a first step, 25 μl of goat anti human IgG (Sigma, #12136), diluted 1:1000 in coating buffer (Candor, #121125) was coated on the plate at 4° C. overnight. Next day, the plate was washed one time with 50 μl PBST and then blocked with 50 μl SmartBlock (Candor, #113125) for one hour at room temperature (RT). […] After three additional washes of the coated and blocked microtiter plate with PBS-T, 25 μl of each mixture were added and the assay plate was incubated for one hour at room temperature. After three additional washes, anti-mouse-gp130 biotinylated antibody (R&D, #BAF468) or anti-human gp130 biotinylated antibody (R&D, #BAF228), both 1:1000 in 10% SmartBlock PBS-T, was added and incubated for 1 hour at RT. After three additional washes, a Streptavidin-Peroxidase conjugate (Sigma, #S5512) 1:1000 in SmartBlock PBS-T was added and incubated for one hour at room temperature. After a final three washes, AmplexRed (Fisher Scientific, A12222), 1/1000 in PBS, 0,003% H₂O₂, was added as substrate and incubated for 15 min at RT in the dark. Then, the fluorescence was measured with a plate reader at 535/595 nm. Signals from dose responses were used to calculate IC50 values using GraphPad Prism software.

B1: TPP-18068 (antibody, mouse IgG1)
heavy: EVQLLESGGGLVQPGGSLRLSCAASGFTFSSYGMHWVRQAPGKGLEWVSVISYDGSYKYYADSVKGRFTISRDNSKNTLYLQMNSLRAEDTAVYYCAAGVPDYWGQGTLVTVSSAKTTPPSVYPLAPGSAAQTNSMVTLGCLVKGYFPEPVTVTWNSGSLSSGVHTFPAVLQSDLYTLSSSVTVPSSTWPSETVTCNVAHPASSTKVDKKIVPRDCGCKPCICTVPEVSSVFIFPPKPKDVLTITLTPKVTCVVVDISKDDPEVQFSWFVDDVEVHTAQTQPREEQFNSTFRSVSELPIMHQDWLNGKEFKCRVNSAAFPAPIEKTISKTKGRPKAPQVYTIPPPKEQMAKDKVSLTCMITDFFPEDITVEWQWNGQPAENYKNTQPIMDTDGSYFVYSKLNVQKSNWEAGNTFTCSVLHEGLHNHHTEKSLSHSPGK
light: QSVLTQPPSASGTPGQRVTISCTGSSSNIGAGYDVHWYQQLPGTAPKLLIYSNNERPSGVPDRFSGSKSGTSASLAISGLRSEDEADYYCAAWDDSLNGPVFGGGTKLTVLGQPKSSPSVTLFPPSSEELETNKATLVCTITDFYPGVVTVDWKVDGTPVTQGMETTQPSKQSNNKYMASSYLTLTARAWERHSSYSCQVTHEGHTVEKSLSRADCS
notes: mIgG1, Lambda
**Q.** B1 was tested. Which “Efficacy (%), Stat3 reporter gene assay” value [1] did it give?
**A.** 84.1%

**Q.** What about the “IC50, Stat3 reporter gene assay” value [1] of the same binder?
**A.** 2.7 nM

**Q.** What about the “Efficacy (%), Stat3 reporter gene assay” value [2] of the same binder?
**A.** 20.7%

**Q.** What about the “IC50, Stat3 reporter gene assay” value [2] of the same binder?
**A.** 4.8 nM

**Q.** And the “Antibody/Isotype Control Ratio of IL-2Ra Binding Signals” value (“Antibody/Isotype Control Ratio” below) [3]?
**A.** 377 ratio

B2: TPP-29528 (antibody, mouse IgG1)
heavy: EVQLLESGGGLVQPGGSLRLSCAASGFTFSSYGMHWVRQAPGKGLEWVAVISYDGSYKYYADSVKGRFTISRDNSKNTLYLQMNSLRAEDTAVYYCAAGVPDYWGQGTLVTVSSAKTTPPSVYPLAPGSAAQTNSMVTLGCLVKGYFPEPVTVTWNSGSLSSGVHTFPAVLQSDLYTLSSSVTVPSSTWPSETVTCNVAHPASSTKVDKKIVPRDCGCKPCICTVPEVSSVFIFPPKPKDVLTITLTPKVTCVVVDISKDDPEVQFSWFVDDVEVHTAQTQPREEQFNSTFRSVSELPIMHQDWLNGKEFKCRVNSAAFPAPIEKTISKTKGRPKAPQVYTIPPPKEQMAKDKVSLTCMITDFFPEDITVEWQWNGQPAENYKNTQPIMDTDGSYFVYSKLNVQKSNWEAGNTFTCSVLHEGLHNHHTEKSLSHSPGK
light: QSVLTQPPSASGTPGQRVTISCSGSSSNIGSDYDVHWYQQLPGTAPKLLIYSNEERPSGVPDRFSGSKSGTSASLAISGLRSEDEADYYCSAWDSSLSGPVFGGGTKLTVLGQPKSSPSVTLFPPSSEELETNKATLVCTITDFYPGVVTVDWKVDGTPVTQGMETTQPSKQSNNKYMASSYLTLTARAWERHSSYSCQVTHEGHTVEKSLSRADCS
notes: mIgG1, Lambda
**Q.** How did the “Antibody/Isotype Control Ratio” value [3] turn out when B2 was run?
**A.** 24.2 ratio

B3: TPP-29519 (antibody, mouse IgG1)
heavy: QVQLVESGGGVVQPGRSLRLSCAASGFTFSHYDMHWVRQAPGKGLEWVAVISYHGSVKFYADSVKGRFTISRDNSKNTLYLQMNSLRAEDTAVYYCARTPGFHFDYWGQGTLVTVSSAKTTPPSVYPLAPGSAAQTNSMVTLGCLVKGYFPEPVTVTWNSGSLSSGVHTFPAVLQSDLYTLSSSVTVPSSTWPSETVTCNVAHPASSTKVDKKIVPRDCGCKPCICTVPEVSSVFIFPPKPKDVLTITLTPKVTCVVVDISKDDPEVQFSWFVDDVEVHTAQTQPREEQFNSTFRSVSELPIMHQDWLNGKEFKCRVNSAAFPAPIEKTISKTKGRPKAPQVYTIPPPKEQMAKDKVSLTCMITDFFPEDITVEWQWNGQPAENYKNTQPIMDTDGSYFVYSKLNVQKSNWEAGNTFTCSVLHEGLHNHHTEKSLSHSPGK
light: QSVLTQPPSASGTPGQRVTISCSGSSSNIGSNYVSWYQQLPGTAPKLLIYYDDLRPSGVPDRFSGSKSGTSASLAISGLRSEDEADYYCSAWDDSLSGVVFGGGTKLTVLGQPKSSPSVTLFPPSSEELETNKATLVCTITDFYPGVVTVDWKVDGTPVTQGMETTQPSKQSNNKYMASSYLTLTARAWERHSSYSCQVTHEGHTVEKSLSRADCS
notes: mIgG1, Lambda
**Q.** How did the “Antibody/Isotype Control Ratio” value [3] turn out when B3 was run?
**A.** 0.7 ratio

B4: TPP-18087 (antibody, mouse IgG1, V domains shown)
VH: EVQLLESGGGLVQPGGSLRLSCAASGFTFSHYDMNWLRQAPGKGLEWVGVISYDGSNKFYADFVKGRFTISRDNSKNTLYLQMNSLRAEDTAVYYCARTPGSHFDYWGQGTLVTVSS
VL: QSVLTQPPSASGTPGQRVTISCSGSSSNIGNNAVNWYQQLPGTAPKLLIYYDDLLPSGVPDRFSGSKSGTSASLAISGLRSEDEADYYCSAWDDSLNGVVFGGGTKLTVLG
notes: mIgG1, Lambda
**Q.** With B4 as the binder, how does the “Efficacy (%)” value [4] read?
**A.** 60.4%

**Q.** What about the IC50 [4] of the same binder?
**A.** 55 nM

B5: TPP-18087 (antibody, mouse IgG1, V domains shown)
VH: EVQLLESGGGLVQPGGSLRLSCAASGFTFSHYDMNWLRQAPGKGLEWVGVISYDGSNKFYADFVKGRFTISRDNSKNTLYLQMNSLRAEDTAVYYCARTPGSHFDYWGQGTLVTVSS
VL: QSVLTQPPSASGTPGQRVTISCSGSSSNIGNNAVNWYQQLPGTAPKLLIYYDDLLPSGVPDRFSGSKSGTSASLAISGLRSEDEADYYCSAWDDSLNGVVFGGGTKLTVLG
notes: mIgG1, Lambda
**Q.** For B5, which “Efficacy (%), Stat3 reporter gene assay” value [1] is on record?
**A.** 49%

**Q.** And the “IC50, Stat3 reporter gene assay” value [1]?
**A.** 330 nM

**Q.** And the “Efficacy (%), Stat3 reporter gene assay” value [2]?
**A.** 51.5%

**Q.** And the “IC50, Stat3 reporter gene assay” value [2]?
**A.** 110 nM

**Q.** What about the “Antibody/Isotype Control Ratio” value [3] of the same binder?
**A.** 0.6 ratio

B6: TPP-19528 (antibody, mouse IgG1, V domains shown)
VH: EVQLLESGGGLVQPGGSLRLSCAASGFTFSIYAMSWVRQAPGKGLEWVSSISDTGDRTYYADSVKGRFTISRDNSKNTLYLQMNSLRAEDTAVYYCARSNWGSLDYWGQGTLVTVSS
VL: QSVLTQPPSASGTPGQRVTISCSGSSSNIGSNYVYWYQQLPGTAPKLLIYYDDLLPSGVPDRFSGSKSGTSASLAISGLRSEDEADYYCAAWDDSLSGRVFGGGTKLTVLG
notes: mIgG1, Lambda
**Q.** How did the “Efficacy (%)” value [4] turn out when B6 was run?
**A.** 57%

**Q.** And the IC50 [4]?
**A.** 20 nM
